Test results from patent US20110251266A1.

Molecular target: Human NGF (manufactured by R&D Systems) (human) (UniProt P01138)
Assay: cell-based or functional assay

Human NGF (manufactured by R&D Systems) (human), sequence (P01138 122-241 limits assumed): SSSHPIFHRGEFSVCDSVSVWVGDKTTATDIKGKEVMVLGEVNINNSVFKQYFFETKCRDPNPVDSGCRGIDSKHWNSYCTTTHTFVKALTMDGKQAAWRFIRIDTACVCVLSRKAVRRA

inhibitory activity (neurite outgrowth of PC-12 cells): > 50%
Substance: anti-NGF antibody (MAB2561, R&D Systems)
